Test results reported in publication PMC8216470, “The structure of the mouse ADAT2/ADAT3 complex reveals the molecular basis for mammalian tRNA wobble adenosine-to-inosine deamination” (Nucleic Acids Research, 2021).

Target: the molecule itself
Assay: SEC; oligomeric state of the protein produced alone, as assessed by size exclusion chromatography

| Protein | stoichiometry N |
| --- | --- |
| Escherichia coli TadA (enzyme, E. coli, UniProt P68398 1-167, looked up, tRNA-specific adenosine deaminase TadA, Escherichia coli; also called E. coli TadA; source: produced and purified using the same protocol as for the ADAT complex (E. coli BL21(DE3); Talon, 3C protease, HiTrap Q, Superdex 200)) MSEVEFSHEYWMRHALTLAKRAWDEREVPVGAVLVHNNRVIGEGWNRPIGRHDPTAHAEIMALRQGGLVMQNYRLIDATLYVTLEPCVMCAGAMIHSRIGRVVFGARDAKTGAAGSLMDVLHHPGMNHRVEITEGILADECAALLSDFFRMRRQEIKAQKKAQSSTD | 2 |
| mouse ADAT2 (enzyme, UniProt Q6P6J0 1-191, looked up, tRNA-specific adenosine deaminase 2 (ADAT2), mouse, full-length gene amplified from E16.5 cortices, NCBI NM_025748.4; cloned in pnCS, which codes for no fusion tag; residues 11-176 seen in the electron density; the untagged pnCS construct is told only for the co-expression; also called A2; ADAT2/ADAT2 (homodimer, when produced alone); source: E. coli BL21(DE3), co-expressed with ADAT3, purified …) MEEKVESTTTPDGPCVVSVQETEKWMEEAMRMAKEALENIEVPVGCLMVYNNEVVGKGRNEVNQTKNATRHAEMVAIDQVLDWCHQHGQSPSTVFEHTVLYVTVEPCIMCAAALRLMKIPLVVYGCQNERFGGCGSVLNIASADLPNTGRPFQCIPGYRAEEAVELLKTFYKQENPNAPKSKVRKKDCQKS | 2 |
